Data: publication PMC11342882

Target: FcRn with a C-terminal 6×His-tag and complexed with beta-2-microglobulin (UniProt P55899)
Experiment: BLI

| Kd | Substance |
| --- | --- |
| > 100 nM | sACE2_(2).v2.4-IgG1 (from UniProt Q9BYF1-1 18-732) (Fc fusion) |
| 21 nM | sACE2_(2).v2.4-IgG1(YTE) from Expi293F (from UniProt Q9BYF1-1 18-732) (Fc fusion) |
